Assay results published in US20040235764A1.

Biological target: fibronectin
Assay: cell-based or functional assay

integrin α3β1 (from UniProt Q62470 33-1053; P09055 21-798) (receptor)
cell adhesion assay: attached F9 cells counted on fibronectin-coated wells after co-transfection with dsRNA integrin α3; reduction against F9 wild-type and co-transfection controls: 40%
